Experimental data taken from patent publication US20150139996A1.
Read-outs that look alike come from different tables or passages of the source. Values belong to the substance of their own block, whether it stands above or below them.

Legend:
[1] = molecular target: IgG1 heavy chain with CH3 construct 3 (K392D, K409D, K439D) (human) [IgG part: P01857]; test: native MS; transfection J: vectors IV+VII co-expressed 1:1
[2] = molecular target: IgG1 heavy chain with CH3 construct 3 (K392D, K409D, K439D) (human) [IgG part: P01857]; test: native MS; transfection L: vectors IV+VII+VIII 1:1:1; BC = vector IV with vector VII
[3] = molecular target: IgG1 heavy chain with CH3 construct 2 (K392D, K409D) (human) [IgG part: P01857]
[4] = molecular target: IgG1 heavy chain with CH3 construct 2 (K392D, K409D) (human) [IgG part: P01857]; test: native MS (peak height); transfection #9 of Table 24; CD = C (fibrinogen)/1 with D (RTK2)/2
[5] = molecular target: IgG1 heavy chain with CH3 construct 1 (E356K, D399K) (human) [IgG part: P01857]; test: native MS; transfection B: vector IV alone (thyroglobulin VH, construct 1)
[6] = molecular target: IgG1 heavy chain with CH3 construct 2 (K392D, K409D) (human) [IgG part: P01857]; test: native MS (peak height); transfection #11 of Table 24; CC = C (fibrinogen)/1 with C/2
[7] = molecular target: IgG1 heavy chain with CH3 construct 3 (K392D, K409D, K439D) (human) [IgG part: P01857]; test: native MS; transfection L: vectors IV+VII+VIII 1:1:1; AB = vector IV with vector VIII
[8] = molecular target: IgG1 heavy chain with CH3 construct 1 (E356K, D399K) (human) [IgG part: P01857]; test: native MS; transfection S: vectors IV+V+VI 2:1:1; homodimer of vector IV
[9] = molecular target: IgG1 heavy chain with CH3 construct 2 (K392D, K409D) (human) [IgG part: P01857]; test: native MS; transfection K: vectors IV+V+VI 1:1:1; BC = vector IV with vector V (fibrinogen VH)
[10] = molecular target: IgG1 heavy chain with CH3 construct 2 (K392D, K409D) (human) [IgG part: P01857]; test: native MS; transfection I: vectors IV+V co-expressed 1:1
[11] = molecular target: IgG1 heavy chain with CH3 construct 3 (K392D, K409D, K439D) (human) [IgG part: P01857]; test: native MS; transfection T: vectors IV+VII+VIII 2:1:1; AB = vector IV with vector VIII
[12] = molecular target: IgG1 heavy chain with CH3 construct 3 (K392D, K409D, K439D) (human) [IgG part: P01857]; test: native MS; transfection T: vectors IV+VII+VIII 2:1:1; BC = vector IV with vector VII
[13] = molecular target: IgG1 heavy chain with CH3 construct 1 (E356K, D399K) (human) [IgG part: P01857]; test: SDS-PAGE of protein A-purified supernatant; construct expressed alone
[14] = molecular target: IgG1 heavy chain with CH3 construct 2 (K392D, K409D) (human) [IgG part: P01857]; test: native MS; transfection S: vectors IV+V+VI 2:1:1; AB = vector IV with vector VI
[15] = molecular target: IgG1 heavy chain with CH3 construct 2 (K392D, K409D) (human) [IgG part: P01857]; test: native MS; transfection S: vectors IV+V+VI 2:1:1; BC = vector IV with vector V
[16] = molecular target: IgG1 heavy chain with CH3 construct 1 (E356K, D399K) (human) [IgG part: P01857]; test: native MS; transfection T: vectors IV+VII+VIII 2:1:1; homodimer of vector IV
[17] = molecular target: IgG1 heavy chain with CH3 construct 65 (S354D, Y349D) (human) [IgG part: P01857]; test: native MS; transfection ZQ: vectors XII+XVIII co-expressed
[18] = molecular target: IgG1 heavy chain with CH3 construct 64 (T366D) (human) [IgG part: P01857]; test: native MS; transfection ZP: vectors XIV+XVII co-expressed
[19] = molecular target: IgG1 heavy chain with CH3 construct 76 (L351K, L368K) (human) [IgG part: P01857]; test: native MS; combination 15 co-expressed (A: VH MF1337, B: VH MF1122)
[20] = molecular target: IgG1 heavy chain with CH3 construct 64 (T366D) (human) [IgG part: P01857]; test: as above
[21] = molecular target: IgG1 heavy chain with CH3 construct 64 (T366D) (human) [IgG part: P01857]; test: SDS-PAGE of protein A-purified supernatant; construct expressed alone
[22] = molecular target: IgG1 heavy chain with CH3 construct 77 (L351R) (human) [IgG part: P01857]; test: native MS; combination 16 co-expressed (A: VH MF1337, B: VH MF1122)
[23] = molecular target: IgG1 heavy chain with CH3 construct 64 (T366D) (human) [IgG part: P01857]; test: as above
[24] = molecular target: IgG1 heavy chain with CH3 construct 72 (L351D, R355D) (human) [IgG part: P01857]; test: native MS; combination 8 co-expressed (A: VH MF1337, B: VH MF1122)
[25] = molecular target: IgG1 heavy chain with CH3 construct 72 (L351D, R355D) (human) [IgG part: P01857]; test: SDS-PAGE of protein A-purified supernatant; construct expressed alone
[26] = molecular target: IgG1 heavy chain with CH3 construct 4 (K392D, D399K, K409D) (human) [IgG part: P01857]; test: native MS; transfection O: vectors I+II+III co-expressed 1:1:1
[27] = molecular target: IgG1 heavy chain with CH3 construct 4 (K392D, D399K, K409D) (human) [IgG part: P01857]; test: native MS; transfection V: vectors I+II+III co-expressed 1:1:10
[28] = molecular target: IgG1 heavy chain with CH3 construct 4 (K392D, D399K, K409D) (human) [IgG part: P01857]; test: native MS; transfection G: vector II alone (VH MF1025, construct 4)
[29] = molecular target: IgG1 heavy chain with CH3 construct 4 (K392D, D399K, K409D) (human) [IgG part: P01857]; test: native MS; transfection M: vectors I+II co-expressed 1:1
[30] = molecular target: IgG1 heavy chain with CH3 construct 5 (E356K, E357K, K439D, K370D) (human) [IgG part: P01857]; test: native MS; transfection N: vectors I+III co-expressed 1:1
[31] = molecular target: IgG1 heavy chain with CH3 construct 5 (E356K, E357K, K439D, K370D) (human) [IgG part: P01857]; test: native MS; transfection O: vectors I+II+III co-expressed 1:1:1
[32] = molecular target: IgG1 heavy chain with CH3 construct 5 (E356K, E357K, K439D, K370D) (human) [IgG part: P01857]; test: native MS; transfection H: vector III alone (VH MF1122, construct 5)
[33] = molecular target: IgG1 heavy chain with CH3 construct 5 (E356K, E357K, K439D, K370D) (human) [IgG part: P01857]; test: native MS; transfection V: vectors I+II+III co-expressed 1:1:10
[34] = molecular target: IgG1 heavy chain with CH3 construct 5 (E356K, E357K, K439D, K370D) (human) [IgG part: P01857]; test: native MS; transfection U: vectors I+III co-expressed 1:5
[35] = molecular target: IgG1 heavy chain with wildtype CH3 (construct vector MV1057, wildtype IgG1 Fc) (human) [IgG part: P01857]; test: native MS; transfection N: vectors I+III co-expressed 1:1
[36] = molecular target: IgG1 heavy chain with wildtype CH3 (construct vector MV1057, wildtype IgG1 Fc) (human) [IgG part: P01857]; test: native MS; transfection O: vectors I+II+III co-expressed 1:1:1
[37] = molecular target: IgG1 heavy chain with wildtype CH3 (construct vector MV1057, wildtype IgG1 Fc) (human) [IgG part: P01857]; test: native MS; transfection V: vectors I+II+III co-expressed 1:1:10
[38] = molecular target: IgG1 heavy chain with wildtype CH3 (construct vector MV1057, wildtype IgG1 Fc) (human) [IgG part: P01857]; test: native MS; transfection U: vectors I+III co-expressed 1:5
[39] = molecular target: IgG1 heavy chain with wildtype CH3 (construct vector MV1057, wildtype IgG1 Fc) (human) [IgG part: P01857]; test: native MS; transfection A: vector I alone (VH MF1337, wildtype CH3)
[40] = molecular target: IgG1 heavy chain with wildtype CH3 (construct vector MV1057, wildtype IgG1 Fc) (human) [IgG part: P01857]; test: native MS; transfection M: vectors I+II co-expressed 1:1
[41] = molecular target: IgG1 heavy chain with CH3 construct 66 (V397D) (human) [IgG part: P01857]; test: native MS; transfection ZR: vectors XV+XIX co-expressed
[42] = molecular target: IgG1 heavy chain with CH3 construct 67 (K360D) (human) [IgG part: P01857]; test: native MS; transfection ZS: vectors XI+XX co-expressed
[43] = molecular target: IgG1 heavy chain with CH3 construct 63 (L351D) (human) [IgG part: P01857]; test: native MS; combination 2 co-expressed (A: VH MF1337, B: VH MF1122)
[44] = molecular target: IgG1 heavy chain with CH3 construct 63 (L351D) (human) [IgG part: P01857]; test: native MS; transfection ZT (3:1): vectors XIII+XVI co-expressed
[45] = molecular target: IgG1 heavy chain with CH3 construct 63 (L351D) (human) [IgG part: P01857]; test: native MS; transfection ZV (1:3): vectors XIII+XVI co-expressed
[46] = molecular target: IgG1 heavy chain with CH3 construct 63 (L351D) (human) [IgG part: P01857]; test: native MS; transfection ZO (1:1): vectors XIII+XVI co-expressed
[47] = molecular target: IgG1 heavy chain with CH3 construct 63 (L351D) (human) [IgG part: P01857]; test: native MS; transfection ZU (1:1): vectors XIII+XVI co-expressed
[48] = molecular target: IgG1 heavy chain with CH3 construct 63 (L351D) (human) [IgG part: P01857]; test: native MS; transfection ZW (1:1): vectors XIII+XVI co-expressed
[49] = molecular target: IgG1 heavy chain with CH3 construct 63 (L351D) (human) [IgG part: P01857]; test: SDS-PAGE of protein A-purified supernatant; construct expressed alone
[50] = molecular target: IgG1 heavy chain with CH3 construct 63 (L351D) (human) [IgG part: P01857]; test: native MS; combination 7 co-expressed (A: VH MF1337, B: VH MF1122)

Substance: IgG1 heavy chain with CH3 construct 1 (E356K, D399K) (from UniProt P01857-1)
- Bispecific found (%) [1]: 96%
- Bispecific found (%) [2]: 16%
- Bispecific found (%) [3]: 47%
- percent of species in the mixture [4]: 67%
- Full IgG found (%) [5]: 60%
- Half molecules found (%) [5]: 40%
- percent of species in the mixture [6]: 61%
- Bispecific found (%) [7]: 60%
- Other molecules (%) [8]: 3%
- Bispecific found (%) [9]: 38%
- Bispecific found (%) [10]: 96%
- Bispecific found (%) [11]: 39%
- Bispecific found (%) [12]: 58%
- % IgG [13]: 64.2%
- % half molecule [13]: 35.8%
- Bispecific found (%) [14]: 55%
- Bispecific found (%) [15]: 42%
- Other molecules (%) [16]: 3%

Substance: IgG1 heavy chain with CH3 construct 65 (S354D, Y349D) (from UniProt P01857-1)
- CC found (%) [17]: 33%

Substance: IgG1 heavy chain with CH3 construct 64 (T366D) (from UniProt P01857-1)
- CC found (%) [18]: 13%
- % AB found [19]: 92%
- % AA found [20]: 3%
- % IgG [21]: 89.6%
- % half molecule [21]: 10.4%
- % AB found [22]: 69%
- % AA found [23]: 30%

- % BB found [24]: 8%
- % IgG [25]: 100%
Substance: IgG1 heavy chain with CH3 construct 72 (L351D, R355D) (from UniProt P01857-1)

- BB found (%) [26]: 4%
- BB found (%) [27]: 81%
- BB found (%) [28]: 100%
- BB found (%) [29]: 45%
Substance: IgG1 heavy chain with CH3 construct 4 (K392D, D399K, K409D) (from UniProt P01857-1)

- CC found (%) [30]: 9%
- CC found (%) [31]: 30%
- CC found (%) [32]: 100%
- CC found (%) [33]: 9%
- CC found (%) [34]: 48%
Substance: IgG1 heavy chain with CH3 construct 5 (E356K, E357K, K439D, K370D) (from UniProt P01857-1)

- AA found (%) [35]: 88%
- AA found (%) [36]: 66%
- AA found (%) [37]: 8%
- AA found (%) [38]: 47%
- AA found (%) [39]: 100%
- AA found (%) [40]: 51%
Substance: IgG1 heavy chain with wildtype CH3 (construct vector MV1057, wildtype IgG1 Fc) (from UniProt P01857-1)

Substance: IgG1 heavy chain with CH3 construct 66 (V397D) (from UniProt P01857-1)
- CC found (%) [41]: 11%

Substance: IgG1 heavy chain with CH3 construct 67 (K360D) (from UniProt P01857-1)
- CC found (%) [42]: 15%

Substance: IgG1 heavy chain with CH3 construct 63 (L351D) (from UniProt P01857-1)
- % BB found [43]: 3%
- CC found (%) [44]: 16%
- CC found (%) [45]: 23%
- CC found (%) [46]: 7%
- CC found (%) [47]: 10%
- CC found (%) [48]: 2.4%
- % IgG [49]: 89.8%
- % half molecule [49]: 10.2%
- % BB found [50]: 12%
